One block for each binder: values may come before it. Ends that are not written are not given here. * marks the point of attachment. Biotin = O=C1N[C@H]2[C@H](CS[C@H]2CCCCC(=O)*)N1
Tests used:
[1] = biological target: T1, His-PDK1 (Myc-PDK1 with an N-terminal hexahistidine sequence, from Sf21 insect cells) (human, UniProt O15530 1-556); assay: SPR, His-PDK1 over the biotinylated peptide on Sensor Chip SA, steady state
T1 construct: Purified by Ni-NTA agarose, >90% homogeneous; also called His-tagged PDK1
T1 sequence: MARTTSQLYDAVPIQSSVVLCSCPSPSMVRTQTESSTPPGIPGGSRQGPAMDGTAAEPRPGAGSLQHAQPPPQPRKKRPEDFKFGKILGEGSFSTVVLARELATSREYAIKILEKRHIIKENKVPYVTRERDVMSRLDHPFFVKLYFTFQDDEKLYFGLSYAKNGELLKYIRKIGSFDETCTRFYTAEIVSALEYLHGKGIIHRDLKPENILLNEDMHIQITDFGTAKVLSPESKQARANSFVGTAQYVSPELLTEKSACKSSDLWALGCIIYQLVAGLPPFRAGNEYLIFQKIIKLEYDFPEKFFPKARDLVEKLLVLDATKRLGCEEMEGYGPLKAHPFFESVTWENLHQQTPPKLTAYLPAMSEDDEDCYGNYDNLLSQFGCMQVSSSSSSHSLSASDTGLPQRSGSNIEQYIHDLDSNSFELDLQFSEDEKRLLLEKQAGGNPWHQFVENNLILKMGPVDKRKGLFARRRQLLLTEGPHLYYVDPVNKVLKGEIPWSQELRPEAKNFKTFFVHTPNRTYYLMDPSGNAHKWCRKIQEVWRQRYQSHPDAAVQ

GST-MSK1 = biological target: T2, GST-MSK1 (UniProt O75582 1-802); assay: GST pull-down from 293 cells, PDK1 immunoblot and activity
T2 construct: not shown: glutathione S-transferase (GST) tag
T2 sequence (O75582 whole entry): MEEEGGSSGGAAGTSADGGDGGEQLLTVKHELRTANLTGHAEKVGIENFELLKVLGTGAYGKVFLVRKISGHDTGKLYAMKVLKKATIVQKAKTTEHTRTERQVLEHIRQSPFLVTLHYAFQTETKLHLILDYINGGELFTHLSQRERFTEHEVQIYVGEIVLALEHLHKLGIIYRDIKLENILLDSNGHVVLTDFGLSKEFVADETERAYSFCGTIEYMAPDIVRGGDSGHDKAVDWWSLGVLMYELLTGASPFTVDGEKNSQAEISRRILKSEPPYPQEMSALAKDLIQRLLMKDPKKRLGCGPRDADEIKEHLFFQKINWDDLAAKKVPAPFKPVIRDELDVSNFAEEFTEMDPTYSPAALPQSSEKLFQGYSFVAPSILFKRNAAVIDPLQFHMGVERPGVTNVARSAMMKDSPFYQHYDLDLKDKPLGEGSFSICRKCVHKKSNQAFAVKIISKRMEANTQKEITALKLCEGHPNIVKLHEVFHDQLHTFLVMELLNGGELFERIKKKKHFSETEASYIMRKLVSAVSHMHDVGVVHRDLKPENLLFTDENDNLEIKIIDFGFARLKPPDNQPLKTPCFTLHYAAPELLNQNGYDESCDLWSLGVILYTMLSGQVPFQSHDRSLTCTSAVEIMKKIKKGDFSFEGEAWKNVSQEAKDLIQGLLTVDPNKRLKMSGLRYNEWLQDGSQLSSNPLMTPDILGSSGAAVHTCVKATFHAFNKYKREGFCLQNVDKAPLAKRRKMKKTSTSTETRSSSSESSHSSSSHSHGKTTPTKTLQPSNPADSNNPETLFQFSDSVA

[2] = biological target: T1, His-PDK1 (Myc-PDK1 with an N-terminal …); assay: SPR competition: 0.5 µM His-PDK1 mixed with 0-3 µM free Region B peptide, injected over the immobilised peptide
[3] = biological target: T1, His-PDK1 (Myc-PDK1 with an N-terminal …); assay: SPR competition with the immobilised Region B peptide

Kd [1]: 800 nM
B1: immobilised and biotinylated 24 residue synthetic peptide corresponding to the Region B peptide (peptide)
peptide: REPRILSEEEQEMFRDFDYIADWC(Biotin)
notes: also called Region B peptide, biotinylated

binding result (GST-MSK1): no binding
B2: endogenous PDK1 of 293 cells (enzyme, UniProt O15530 1-556, looked up)
chain: MARTTSQLYDAVPIQSSVVLCSCPSPSMVRTQTESSTPPGIPGGSRQGPAMDGTAAEPRPGAGSLQHAQPPPQPRKKRPEDFKFGKILGEGSFSTVVLARELATSREYAIKILEKRHIIKENKVPYVTRERDVMSRLDHPFFVKLYFTFQDDEKLYFGLSYAKNGELLKYIRKIGSFDETCTRFYTAEIVSALEYLHGKGIIHRDLKPENILLNEDMHIQITDFGTAKVLSPESKQARANSFVGTAQYVSPELLTEKSACKSSDLWALGCIIYQLVAGLPPFRAGNEYLIFQKIIKLEYDFPEKFFPKARDLVEKLLVLDATKRLGCEEMEGYGPLKAHPFFESVTWENLHQQTPPKLTAYLPAMSEDDEDCYGNYDNLLSQFGCMQVSSSSSSHSLSASDTGLPQRSGSNIEQYIHDLDSNSFELDLQFSEDEKRLLLEKQAGGNPWHQFVENNLILKMGPVDKRKGLFARRRQLLLTEGPHLYYVDPVNKVLKGEIPWSQELRPEAKNFKTFFVHTPNRTYYLMDPSGNAHKWCRKIQEVWRQRYQSHPDAAVQ
notes: Two bands (63 and 66 kDa) both co-purified with GST-PIF; also called PDK1 immunoreactive bands at 63 kDa and 66 kDa

Kd [2]: 1500 nM
B3: Region B peptide (24 residue synthetic peptide corresponding to Region B of PIF) (peptide)
peptide: REPRILSEEEQEMFRDFDYIADWC
notes: also called free peptide; wild type peptide

fold less strongly than the Region B peptide [3]: 10 fold
B4: D978A-Region B peptide (peptide)
peptide: REPRILSEEEQEMFRDFAYIADWC
notes: Range 961-984 is worked out from 'C-terminal 24 amino acids'
